This note sets out measurements from patent US20130171159.

The subject of this data set is T1, Twist1.
T1 sequence: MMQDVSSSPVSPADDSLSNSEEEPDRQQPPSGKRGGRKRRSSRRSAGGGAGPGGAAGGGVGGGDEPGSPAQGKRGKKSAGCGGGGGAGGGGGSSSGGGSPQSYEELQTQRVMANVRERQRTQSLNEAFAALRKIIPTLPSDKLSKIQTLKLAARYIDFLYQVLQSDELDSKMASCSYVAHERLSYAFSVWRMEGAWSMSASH

As for “Akt (protein kinase B), Akt1 and Akt2 of mouse embryonic fibroblasts”, the “Phosphorylation of Twist1 on S42 in Akt1/2-depleted versus wild-type MEFs” value is “Phosphorylation of Twist1 was not detected in Akt1/2-depleted MEFs under basal conditions or after insulin stimulation, but was high in stimulated wild-type MEFs”.
